Test results as given in article PMC12420816 (Nature Communications, 2025).

Biological target: SARS-CoV-2 nsp16 with uncleaved His6-tag (SARS-CoV-2) (UniProt P0DTD1)
Assay: native MS

## MERS-CoV nsp7-11 polyprotein, tag-free with authentic termini (domain or fragment)
  percent of signal as complex: < 5%
